The values that follow come from the RNAGym collection of RNA variant scans (doi:10.1073/pnas.2313332121).

B1: TPR 5TU (parent)
chain: GGAUCUUCUCGAUCUAACAAAAAAGACAAAUCUGCCACAAAGCUUGAGAGCAUCUUCGGAUGCAGAGGCGGCAGCCUUCGGUGGCGCGAUAGCGCCAACGUUCUCAACUAUGACACGCAAAACGCGUGCUCCGUUGAAUGGAGUUUAUCAUG

Variants at the floor of the assay were thinned out.

Variants of B1 are the subject of this series. In words: polymerase ribozyme fitness, log enrichment relative to wild type (log ratio); higher = more active; in vitro selection for triplet polymerase activity. An outline of the steps: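 Fitness measures genotype enrichment against wild-type enrichment on a logarithmic scale, with inverse-variance-weighted averaging of replicates. The logarithm is base 2, and genotypes were kept only with ≥10 input reads and ≥1 read per output in Illumina sequencing. The sequenced libraries came from one triplicate in vitro selection round, including frozen incubation at −7 °C, of PCR-built, transcribed mutant libraries of each subunit of a heterodimeric triplet polymerase ribozyme.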
Consider G48C C85A C118A, for which the “polymerase ribozyme fitness (log ratio)” value is -1.39. The same measure for G50A U55A A91U U135C: at most -4.2; for A47C G68A C96G C99A: at most -4.2. In the case of G50A U55G C87U, the “polymerase ribozyme fitness (log ratio)” value was -1.24. As to A47C C103G U135G, the “polymerase ribozyme fitness (log ratio)” value is at most -4.2. For A49G G59U A97U G143A, the “polymerase ribozyme fitness (log ratio)” value is -3.58. As to G50A U53A C85A U109G A115G C116G G126C, the “polymerase ribozyme fitness (log ratio)” value is at most -4.2. As to A49C C75G C87A, the “polymerase ribozyme fitness (log ratio)” value was at most -4.2. Take A47G U55A C116G: the “polymerase ribozyme fitness (log ratio)” value was -0.139. The same measure for A49U C54U G88C U90A C114U A142C: at most -4.2; for G50A C96G C129U: -3.02; for A47U C54U U56A G84C C99A C108U C114U G126U: at most -4.2.

With A49C U56C, the “polymerase ribozyme fitness (log ratio)” value was at most -4.2. As for G50C C87U A122U, the “polymerase ribozyme fitness (log ratio)” value is -3.11. To G48A A52G U55G G70C C96A belongs at most -4.2; to G48A U55A A119U G124U U144C, -1.13. In the case of A49G C51A U53C C87G, the “polymerase ribozyme fitness (log ratio)” value is at most -4.2. A49G G117A: the “polymerase ribozyme fitness (log ratio)” value was -0.467. A49G G117U: the “polymerase ribozyme fitness (log ratio)” value is -0.367.

Take A49C C116A G143C: the “polymerase ribozyme fitness (log ratio)” value is at most -4.2. G48A C85G C125G: the “polymerase ribozyme fitness (log ratio)” value was -4.1.

Consider A47U C51U C87U A113U G152A, for which the “polymerase ribozyme fitness (log ratio)” value was -3.99.

Take G48A G67U G80C C85U C132U: the “polymerase ribozyme fitness (log ratio)” value is at most -4.2. Consider A47G G62U U145C U151A, for which the “polymerase ribozyme fitness (log ratio)” value is at most -4.2. As for G50A G84U A147U, the “polymerase ribozyme fitness (log ratio)” value was -1.53. With A47C G83A C118U G133C U148C, the “polymerase ribozyme fitness (log ratio)” value is at most -4.2.

Consider G50A A52G C76U A98G C123G, for which the “polymerase ribozyme fitness (log ratio)” value was -2.81. For G48C U102G, the “polymerase ribozyme fitness (log ratio)” value was -2.42. As for G48A U56A C85U A110G G141U, the “polymerase ribozyme fitness (log ratio)” value was at most -4.2.

In the case of G50C A66G C96U U146G, the “polymerase ribozyme fitness (log ratio)” value was at most -4.2.

For the variant G48A A60G G83U G126U U134C, the “polymerase ribozyme fitness (log ratio)” value was -3.58.

With G50C C87U G100A, the “polymerase ribozyme fitness (log ratio)” value was at most -4.2. As to G48A C96A, the “polymerase ribozyme fitness (log ratio)” value was -1.51.

Take G48A C96U: the “polymerase ribozyme fitness (log ratio)” value was -0.356. To A49U U55G G58A C123A G126U U148A belongs at most -4.2; to A49C G59C A91U, at most -4.2; to A47G G50A A52U C63A A142C, at most -4.2. Turning to G50A C57U C76U C125U A142C U144G A150G, the “polymerase ribozyme fitness (log ratio)” value was -3.98. On to G48A C103A, for which the “polymerase ribozyme fitness (log ratio)” value was -1.74. For the variant A47U C57U, the “polymerase ribozyme fitness (log ratio)” value worked out at 0.131. As to G50C C87A C93A C99U A137U A138C, the “polymerase ribozyme fitness (log ratio)” value is at most -4.2. On to A47U C95U, for which the “polymerase ribozyme fitness (log ratio)” value was -0.679.

Regarding G50A U56A G86A, the “polymerase ribozyme fitness (log ratio)” value is -3.11. With A47G U55A C79G C93U, the “polymerase ribozyme fitness (log ratio)” value was at most -4.2. On to A49U G84U A97C G126C A138G A150G, for which the “polymerase ribozyme fitness (log ratio)” value is at most -4.2. To A49G C54U U109G belongs -2.26; to G50A C76A C96U, -3.13; to A49C U146A, -3.98. To A49U C87A belongs at most -4.2; to A49C G141U, -3.13. Consider G48C U53C G136U, for which the “polymerase ribozyme fitness (log ratio)” value was -3.16. As to G48C G68C G70A C129G, the “polymerase ribozyme fitness (log ratio)” value is at most -4.2.

For the variant A49U C57U C93G C103G U144C, the “polymerase ribozyme fitness (log ratio)” value is at most -4.2.

As to G50A G88U U127C, the “polymerase ribozyme fitness (log ratio)” value is at most -4.2. In the case of G50A G94U, the “polymerase ribozyme fitness (log ratio)” value is -3.07. For the variant A47G G68A C72U G81A A89G U148A, the “polymerase ribozyme fitness (log ratio)” value is at most -4.2. Consider G48C A120C, for which the “polymerase ribozyme fitness (log ratio)” value was -0.573. As to G48U G92U U144C, the “polymerase ribozyme fitness (log ratio)” value was -0.761. Consider A47U C54A C75G G140A, for which the “polymerase ribozyme fitness (log ratio)” value is at most -4.2.

Take G48U A52C C93U: the “polymerase ribozyme fitness (log ratio)” value was -3.41. To G48U G59U belongs 0.371; to G50C G59U C118U, -2.35; to A47G A98G A115G C123G U130A, -3.77.

Take A49C U56A A64G C87U: the “polymerase ribozyme fitness (log ratio)” value is at most -4.2. Take A49G U53A U144G: the “polymerase ribozyme fitness (log ratio)” value was -0.883.

Consider G50A C54U C85U G92U U148A, for which the “polymerase ribozyme fitness (log ratio)” value was at most -4.2. In the case of G48A C57G G83C C87G U102A G112C A119C, the “polymerase ribozyme fitness (log ratio)” value was at most -4.2. As to G48A A137G C149U, the “polymerase ribozyme fitness (log ratio)” value was -3.82. To G50C C85A C93A belongs at most -4.2; to G50C G65A, -3.27; to A47C U82G A142C, -2.54. As for G50A C75U C96A A97U, the “polymerase ribozyme fitness (log ratio)” value is at most -4.2. The same measure for G48U A120U: -0.0736. The same measure for A47U U56A A122G U127C: -2.55; for A49C G58A G65A U139A: at most -4.2. To A49C G50U U78G C85U A97G U102G A107U A142C belongs at most -4.2. In the case of G50C A137C G141U, the “polymerase ribozyme fitness (log ratio)” value is at most -4.2. G50A C93U A142U: the “polymerase ribozyme fitness (log ratio)” value is -3.71. G48U U134G: the “polymerase ribozyme fitness (log ratio)” value was -2.34. In the case of A49C A64U C75U C76U U135G, the “polymerase ribozyme fitness (log ratio)” value is at most -4.2. With A47G G80A, the “polymerase ribozyme fitness (log ratio)” value was -0.0419. To G50A U55G A97G U102G belongs -3.43.

A49U A73G G86C A97U: the “polymerase ribozyme fitness (log ratio)” value was at most -4.2.
